Assay [1] deals with T1, LgBiT-MR (mineralocorticoid receptor with LgBiT at the N-terminus) (UniProt P08235 1-984).
T1 construct: mineralocorticoid receptor (MR, NR3C2); NanoBiT fusion; also called pLgBiT-MR; source: HEK293T, transfected (calcium phosphate), in intact cells; not shown: LgBiT, N-terminal, kept
T1 sequence (looked up): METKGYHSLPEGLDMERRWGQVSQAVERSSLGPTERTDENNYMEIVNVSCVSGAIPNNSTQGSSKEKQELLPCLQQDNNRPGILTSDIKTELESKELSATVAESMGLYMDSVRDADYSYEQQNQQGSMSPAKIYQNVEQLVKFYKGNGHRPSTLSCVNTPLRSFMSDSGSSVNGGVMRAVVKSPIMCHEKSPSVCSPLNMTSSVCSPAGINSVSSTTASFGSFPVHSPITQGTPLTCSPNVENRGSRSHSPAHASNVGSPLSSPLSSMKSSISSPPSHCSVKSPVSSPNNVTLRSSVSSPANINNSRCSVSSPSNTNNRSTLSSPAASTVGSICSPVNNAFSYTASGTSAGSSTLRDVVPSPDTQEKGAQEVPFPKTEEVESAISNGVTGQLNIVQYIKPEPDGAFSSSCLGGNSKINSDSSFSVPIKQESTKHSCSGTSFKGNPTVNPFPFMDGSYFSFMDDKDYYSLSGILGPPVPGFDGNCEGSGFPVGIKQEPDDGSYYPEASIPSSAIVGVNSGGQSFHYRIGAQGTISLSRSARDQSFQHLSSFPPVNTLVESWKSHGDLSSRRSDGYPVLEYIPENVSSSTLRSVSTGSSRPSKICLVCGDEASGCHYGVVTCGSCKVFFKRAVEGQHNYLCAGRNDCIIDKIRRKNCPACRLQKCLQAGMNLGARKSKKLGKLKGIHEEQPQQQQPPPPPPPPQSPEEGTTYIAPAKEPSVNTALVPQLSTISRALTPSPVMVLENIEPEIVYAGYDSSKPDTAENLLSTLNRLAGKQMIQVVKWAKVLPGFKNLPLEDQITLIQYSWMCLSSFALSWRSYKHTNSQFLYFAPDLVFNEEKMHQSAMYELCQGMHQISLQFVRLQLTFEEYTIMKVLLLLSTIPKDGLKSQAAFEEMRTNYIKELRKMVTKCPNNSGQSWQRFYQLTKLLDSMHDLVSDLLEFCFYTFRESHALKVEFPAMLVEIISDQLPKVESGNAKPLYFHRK
Kind of assay: split reporter (BiFC, NanoBiT); NanoBiT in intact HEK293T cells, Dex (10^-6 M) added after baseline, luminescence over 60 min, normalised to baseline and given as fold versus solvent. The note with it: partners not purified.

In assay [2] the target is T1, LgBiT-MR (mineralocorticoid receptor …). Kind of assay: split reporter (BiFC, NanoBiT); NanoBiT in intact HEK293T cells, Dex (10^-6 M) together with Spi (10^-5 M) added after baseline, luminescence over 60 min, normalised to baseline and given as fold versus solvent. The note with it: partners not purified.

B1: GR-SmBiT (glucocorticoid receptor with SmBiT at the C-terminus) (receptor, UniProt P04150 1-777, looked up)
chain: MDSKESLTPGREENPSSVLAQERGDVMDFYKTLRGGATVKVSASSPSLAVASQSDSKQRRLLVDFPKGSVSNAQQPDLSKAVSLSMGLYMGETETKVMGNDLGFPQQGQISLSSGETDLKLLEESIANLNRSTSVPENPKSSASTAVSAAPTEKEFPKTHSDVSSEQQHLKGQTGTNGGNVKLYTTDQSTFDILQDLEFSSGSPGKETNESPWRSDLLIDENCLLSPLAGEDDSFLLEGNSNEDCKPLILPDTKPKIKDNGDLVLSSPSNVTLPQVKTEKEDFIELCTPGVIKQEKLGTVYCQASFPGANIIGNKMSAISVHGVSTSGGQMYHYDMNTASLSQQQDQKPIFNVIPPIPVGSENWNRCQGSGDDNLTSLGTLNFPGRTVFSNGYSSPSMRPDVSSPPSSSSTATTGPPPKLCLVCSDEASGCHYGVLTCGSCKVFFKRAVEGQHNYLCAGRNDCIIDKIRRKNCPACRYRKCLQAGMNLEARKTKKKIKGIQQATTGVSQETSENPGNKTIVPATLPQLTPTLVSLLEVIEPEVLYAGYDSSVPDSTWRIMTTLNMLGGRQVIAAVKWAKAIPGFRNLHLDDQMTLLQYSWMFLMAFALGWRSYRQSSANLLCFAPDLIINEQRMTLPCMYDQCKHMLYVSSELHRLQVSYEEYLCMKTLLLLSSVPKDGLKSQELFDEIRMTYIKELGKAIVKREGNSSQNWQRFYQLTKLLDSMHEVVENLLNYCFQTFLDKTMSIEFPEMLAEIITNQIPKYSNGNIKKLLFHQK
notes: glucocorticoid receptor (GR, NR3C1); NanoBiT fusion; also called pGR-SmBiT; source: HEK293T, transfected (calcium phosphate), in intact cells; not shown: SmBiT, C-terminal, kept
Regarding B1, in assay [1], the “fold induction of NanoBiT luminescence versus solvent (with Dex)” value was about 8 fold. Besides, the “fold induction of NanoBiT luminescence versus solvent (with Dex and Spi)” value in assay [2] was about 6 fold.

The record behind these values is publication PMC10425521, “Crosstalk between glucocorticoid and mineralocorticoid receptors boosts glucocorticoid-induced killing of multiple myeloma cells” (Cellular and Molecular Life Sciences: CMLS, 2023).
